# Assay: soluble on expression in E. coli; label from the status in PepcDB or PDB records
row,Sequence,soluble on expression in E. coli
1,MSLKIWITKNHKSKDDWSRSKKFIIIKITTHDGVEGWGEAFSIHLREKAIATIIIELFKEISKIKNLSINSLYNKISLLSDNHKGLDFSAATSAIEIAAWDIAGKLKNLPLNCLLTDNPKPDVSIYVTCWSDLRKDEEDYLDQVEKYFEKKYGGIKIYPLFENTSNSIKFVDRVRKIVGMEYPLMLDLAIPKDLDQTKTFLKEVSFLKPYWIEEPVDGENISLLTEIKNSFDMKVVTGEKQSGLPHFKEIIKRDAADILNPDISGIGGIIDMLYVSKEALNNDISISPHCWNSMSVSASAMLHVCSSIPNSEKAEIFPDYIEFTKEFCELPFNIVEDKAILNQSAGLGIVIHEDTLSNLSTYRMDEKNEGHHHHHH,soluble
2,MGSDKIHHHHHHMQPELSEFLRQHRITEVEAIIPDMAGIARGKIIPRNKFESGESMRLPQAVMVQTVTGDYPEDGTLTGVTDPDMVCVPDPSTICLVPWAVDPTAQVIHDCVHFDGSPVEISPRYVLRRVLDLYKAKGWQPVVAPELEFYLVDMNADPDLPLRPPIGRTGRAETGRQSYSIEAVNEFDPLFEDIYEYCEMQGLDIETLIHEVGAAQMEINFVHGDALSLADQVFLFKRTVREAALRHNMYATFMAKPMEGEPGSAMHIHQSLADVHTGRNLFAEEGGVVSPMFHSYLAGLQKYTPALMPIFAPYINSYRRLSRFMAAPINVQWGYDNRTVGFRIPQSTPVARRIENRIPGVDCNPYLAFAATLAAGYLGLTQQLAPTEPIASDGYDLPYQLPRNLEEGISLMAACTPLAGILGDKFVKAYLALKETEYEAFFRVISSWERRHLLLHV,not soluble
3,MTDKKPVIVYGVSGYTGRLVCEYLREFNIPFIAAGRDKKRIQEVLDRIPGLDTVDHEVVEVEHTVPALTELFSGARVVSNMVGPFIKHGAIVVEAALAAGCHYTDTTGEQDWVLDVQAKFGEKFAEKGLLLSPGVAQMYTTGEIAANIAL,not soluble
4,MHITNRSHLADRYGKRTSAEFLLHERPILSFPISLAAIPKEARYLSWELIDYDTIPLIGFPFIHWLAANVPVTNEIPEDFSRTALKPTIQGKNSLASPLGKQMIPALATETLPELTERYLGLSPRSGVHTYTLYVYTTKNPLNLKEGFFANELHQALNDQLLAKAKFEFLY,not soluble
5,MSLTQIENSQYRKHKQKQQHLQHSLTGESKTAIVVFSRSGNTATLSEHIAHKTNGHVYEIFAKSYALGIPGWINALKDARSNVAEIVPQHIDLSSYDTVYLGSPIWLYSPAPPFWQFVKDNDLTNKRVILFNSFNSKFEQHFIDEFAALARAKGATSFEHQYVKRGRMGDQLSTDEMLAAFDHLNPNEGHHHHHH,soluble
6,MTRTNYQKKRMTCPVETEDITYRRKKIKGRRQAILAQFEPELVHHELIGDSCTCPDCHGTLTEIGSVVQRQELVFIPAQLKRINHVQHAYKCQTCSDNSLSDKIIKAPVPKAPLAHSLGSASIIAHTVHQKFTLKVPNYRQEEDWNKLGLSISRKEIANWHIKSSQYYFEPLYDLLRDILLSQEVIHADETSYRVLESDTQLTYYWTFLSGKHEKKGITLYHHDKRRSGLVTQEVLGDYSGYVHCDMHGAYRQLEHAKLVGCWAHVRRKFFEATPKQADKTSLGRKGLVYCDKLFALEAEWCELPPQERLVKRKEILTPLMTTFFDWCREQVVLSGSKLGLAIAYSLKHERTFRTVLEDGHIVLSNNMAERAIKSLVMGRKNWLFSQSFEGAKAAAIIMSLLETAKRHGLNSEKYISYLLDRLPNEETLAKREVLEAYLPWAKKVQTNCQ,not soluble
7,MGSDKIHHHHHHMNNIIVGMGEALWDVLPEGKKIGGAPANFAYHVSQFGFDSRVVSAVGNDELGDEIMEVFKEKQLKNQIERVDYPTGTVQVTLDDEGVPCYEIKEGVAWDNIPFTDELKRLALNTRAVCFGSLAQRNEVSRATINRFLDTMPDIDGQLKIFDINLRQDFYTKEVLRESFKRCNILKINDEELVTISRMFGYPGIDLQDKCWILLAKYNLKMLILTCGINGSYVFTPGVVSFQETPKVPVADTVGAGDSFTAAFCASILNGKSVPEAHKLAVEVSAYVCTQSGAMPELPVILKDRLL,not soluble
8,MKNREIYAEMRCIPPVVLRADGRNFKNTLSGLGFEKPYDTTFARAMADTAELFIKKSGLSPYFAYTFSDEISFLFTDLPFDGRVEKIDSVVASFLGSALTIKLRLEAPIAFDSRLVALQKEEVSEYFHWRQLEAWRNFVASWGYYSLRNEGMGKDEAGKFLKGKKEWEIHEMLFERGINLAALPAWQRRGIIISKEECEISGFNPVYGKEVKSMRRRITQNWEIPKFKSEEGITFLEKLINRNMAGDPLEHHHHHH,not soluble
9,MASAIGKNFQSGARECSTFEKIKTELSAAGLSSGAIDGILKIAATYKPKEGEKPDLAQAMVTIGKLFAELETFIKTQPESDQTIYHAIIEKKKAELVAHGIKF,not soluble
10,LSSLLKAANLARSTYYYQMATGQAEDRHGALKERIQHIYAQHKGRYGYRRITATLRRAGTLVNHKTVQRLMSALQLKSLVRPKKYRSYLGQVGRVAPNLLQREFEASKPNEKWVTDVTEFNVGGKKLYLSPVLDLYNGEIVAWQTSERPDYTLIREMLDKALRKLRPCETPMLHSDQGWPYQMAAYRRKLAARGLRQSMSRKGNCLDNAAMESFFGTLKSECFRLERFADIDQLRRAIAEYIRYYNHERIKIKLKGLSPVQYRTQPLAA,soluble
11,EKFRWFISSEGFLVIGGKDATTNEIVVRKYLEENDLYCHADIWGAPHVVIKDGQKAGEKTIFEACQFAVSMSRAWSEGLYSADAYWVYPNQVKKQAPSGEFLPK,not soluble
12,MGSSHHHHHHSSGLVPRGSHMKAMNKVWVIGDASVDLVPEKQNSYLKCPGGASANVGVCVARLGGECGFIGCLGDDDAGRFLRQVFQDNGVDVTFLRLDADLTSAVLIVNLTADGERSFTYLVHPGADTYVSPQDLPPFRQYEWFYFSSIGLTDRPAREACLEGARRMREAGGYVLFDVNLRSKMWGNTDEIPELIARSAALASICKVSADELCQLSGASHWQDARYYLRDLGCDTTIISLGADGALLITAEGEFHFPAPRVDVVDTTGAGDAFVGGLLFTLSRANCWDHALLAEAISNANACGAMAVTAKGAMTALPFPDQLNTFLSSHSLAQAMTVK,soluble
13,MPLSWPPEQFAFALEQMPLTENNRRILQAFLDAPEQTLTAHSLAAAANVAGGWSAANLRIGELSRKFAPVLGSLPDAGDGDPHWWRYIASGRWDGGRFYWTLRPQLKDALLTLGWQSSESLDNEAEGVSAEEARTFVEGATRQIFVNAYERNAGARAACIAHFGTVCRVCETDLVAIYGEVARGYIQVHHLRSLAEVGRQYEVNPLTDLIPVCPNCHAMLHQRRPAYTPEELRAMLGRGQHLEHHHHHH,not soluble
14,MNSLLAELNRLGVAHATTEDVFIFVDRLFQHFSFLFQAEESGPRRLELVASVFEHLTVECVNDILDACSHPDVNVAETSNTCRPCPSPVPSAPKTVSGAQTSCATPRAPVTLEHHHHHH,not soluble
15,MSDSCDGVECGPGKACRMLGGRPRCECAPDCSGLPARLQVCGSDGATYRDECELRAARCRGHPDLSVMYRGRCRK,soluble
16,MYPDHMFKYVIIGDGGVGKSNLLLRFTDELFDPIHTTTLGVEFGYKDLQIDKYKVRLRVWDTCGQENFRSIIRAYYRNALGALLVYDITCRKSFVHLEQWLSDLRQHGHPEMVIMLIGNKSDLKAVRDVTTEEGEAFAKKNGLTFMETSAKANKHVEKAFVNTAHEIYKKLKLGVIEDDDVKKKKIGIILRSRSGKEKKCC,soluble
17,MIDVGGWYNKAELKAKGDEIVKEAKLATRREAESYRAALDAQAQQEARSKGVENTEHIRGMNPITPQEEAEFAAYLDESFSWIPSAFEGYGDPNPDDFDGIIKDLAKVEGTFGGSQSSTKNGDLAWTEKAKSEIEEWKGVFAENLYNNLLLPLPTIQDNHGKIAHVLTEAMKGTQNIYNGQKRDISQLADDTIKQLKKCGTRDGDNTKLGLTVAACLMGVAAAALALPSGGTSVYVTGIVMASISSSTIITNATVKPGDGDIGGKTVNDVIKSMSDGMSRISTEVSEQEQKVVKVLSKNYEMLTGLRQLGNSSKKPTPISPMRPTIADSKNPSSGLKPEGPQ,not soluble
18,MTIKWIDWVKQIQSIAQAGLTYSKDVYDIERFQQLRDISISMMSHYTKTDWEVVEKLFASETGYQTPKVDIRAVVFQNEKLLFVKEKSDGKWALPGGWADVGYTPTEVAAKEVFEETGYEVDHFKLLAIFDKEKHQPSPSATHVYKIFIGCEIIGGEKKTSIETEEVEFFGENELPNLSIARNTEDQIKEMFAYMKDPQKEKLID,not soluble
19,MKAASYGVPFQSHFGLISTIRGNDGLPRVVVFFQSHFGLISTVKIVEVLEKDEALSIPFWSDFNCHLQMDQRIRLAFFQSHFGLISTGTLQTSGTNANFLSIPFWSDFNLELLKRIKKTKMLFQSHFGLISTRNMVWGRSELQRAIFQSHFGLISTQSSQLTMPVKMQTFNPILV,not soluble
20,MLFMIEVEIFPHRYLKASTTEKFLNKIYDLKTVERVVIHGQPLPKVITYGPARGLPVNHTERKIIHVKGVPVELTVMAGRFWITLSDDSELDKLDEICKEMFPFGYNLRVGKFLKDRPTVTDYIKYGEDGVFLINEMDRRLIGMVDPRSRMANLEHHHHHH,not soluble
21,DRLGPHRAAMMASLNDAVKAASQHHQAEAFGQGDMFGVLTDAPEEVENKYTQVPPWPEKVWLEGERETLGLYLTGHPINAYLKELNKYTSCRLKDATPTRRDQ,not soluble
22,MYYAIPTVVVSECLGFSACRYNGDIIRNSFVSRLGEFARLVPVCPEVAIGLGVPRETVRLVKRGEERRLVQSSTNRDWTREMNEFATSFFGQVGEVDGFILKGRSPTCGIKDVRVYDDEESGMVVEKGVGLFAEHVFRRFPNAAIEEEGRLTNAAIREHFLTKVFALALFREVKAKRSMKALVQFHSEHKYLFMAYSQTWLKQLGRLVANRDRLPVEQVLEAYGQGLHALFARAPQRRSHVNVCQHLMGYFKKEMSAKEKQYVLELLAQYRAQQLPLSSVASVLKSWAIREENDYLLQQRYFAPYPPALLDVRDSGKGREKAV,not soluble
23,MIVTVTMNPSIDISYLLDHLKLDTVNRTSQVTKTPGGKGLNVTRVIHDLGGDVIATGVLGGFHGAFIANELKKANIPQAFTSIKEETRDSIAILHEGNQTEILEAGPTVSPEEISNFLENFDQLIKQAEIVTISGSLAKGLPSDFYQELVQKAHAQEVKVLLDTSGDSLRQVLQGPWKPYLIKPNLEELEGLLGQDFSENPLAAVQTALTKPMFAGIEWIVISLGKDGAIAKHHDQFYRVKIPTIQAKNPVGSGDATIAGLAYGLAKDAPAAELLKWGMAAGMANAQERMTGHVDVENVKKHLMNIQVVEIAK,not soluble
24,MNVAIIGATGYSGAELFRLLHGHPHVSRCDVFSSSQDGVHVSESFPHVGSVDGAVLHKLEIEALSRYDAVFFATPPGVSGEWAPALVDRGVKVIDLSGDFRLKDGAVYEQWYGRQTAPAEYLQKAVYGLTEWNREAVREAVLLSNPGCYPTATLLGLAPLVKEGLIKEDSIIVDAKSGVSGAGRKAGLGTHFSEVNENVKIYKVNVHQHIPEIEQTLQTWNEAMEPITFSTHLIPMTRGIMATIYAKAKQSISPNDLVDLYKTSYEGSPFVRIRQLGQFPATKEVYGSNYCDIGLAYDERTGRVTVVSVIDNLMKGAAGQAVQNFNLMMGWDEAEGLQSLPIYP,not soluble
25,MRIRIRVLSHFSSALGFDESSFSIGEGITFAELRSKLIEQFSAFVRPIEIGMYVNMKPVPDDYTMMDGDIVYVFPRSSTP,not soluble

# — the DeepSol protein solubility set
